For the experiment, the system named is coxsackievirus B3 (CVB3-GFP). Type of experiment: cell-based. The settings on record: HeLa cells, replicate R1; for Percent Infected R1: GFP-positive cells within RFP-positive gate.

B1: RNF4: human RING type E3 ligase expressed from lentiviral vector (protein, UniProt P78317 1-190, looked up)
E3 ubiquitin-protein ligase …: MSTRKRRGGAINSRQAQKRTREATSTPEISLEAEPIELVETAGDEIVDLTCESLEPVVVDLTHNDSVVIVDERRRPRRNARRLPQDHADSCVVSSDDEELSRDRDVYVTTHTPRNARDEGATGLRPSGTVSCPICMDGYSEIVQNGRLIVSTECGHVFCSQCLRDSLKNANTCPTCRKKINHKRYHPIYI
modifications: lentiviral expression
notes: human RING type E3 ligase expressed from lentiviral vector
For B1, the “Percent Infected R1” value amounted to 93.3% and the “Z score R1” value was 0.06.

B2: CHFR: human RING type E3 ligase expressed from lentiviral vector (protein, UniProt Q96EP1 1-664, looked up)
E3 ubiquitin-protein ligase …: MERPEEGKQSPPPQPWGRLLRLGAEEGEPHVLLRKREWTIGRRRGCDLSFPSNKLVSGDHCRIVVDEKSGQVTLEDTSTSGTVINKLKVVKKQTCPLQTGDVIYLVYRKNEPEHNVAYLYESLSEKQGMTQESFEANKENVFHGTKDTSGAGAGRGADPRVPPSSPATQVCFEEPQPSTSTSDLFPTASASSTEPSPAGRERSSSCGSGGGGISPKGSGPSVASDEVSSFASALPDRKTASFSSLEPQDQEDLEPVKKKMRGDGDLDLNGQLLVAQPRRNAQTVHEDVRAAAGKPDKMEETLTCIICQDLLHDCVSLQPCMHTFCAACYSGWMERSSLCPTCRCPVERICKNHILNNLVEAYLIQHPDKSRSEEDVQSMDARNKITQDMLQPKVRRSFSDEEGSSEDLLELSDVDSESSDISQPYVVCRQCPEYRRQAAQPPHCPAPEGEPGAPQALGDAPSTSVSLTTAVQDYVCPLQGSHALCTCCFQPMPDRRAEREQDPRVAPQQCAVCLQPFCHLYWGCTRTGCYGCLAPFCELNLGDKCLDGVLNNNSYESDILKNYLATRGLTWKNMLTESLVALQRGVFLLSDYRVTGDTVLCYCCGLRSFRELTYQYRQNIPASELPVAVTSRPDCYWGRNCRTQVKAHHAMKFNHICEQTRFKN
Regarding B2, the “Percent Infected R1” value was determined as 87.2% and the “Z score R1” value is −0.02.

B3: RNF214: human RING type E3 ligase expressed from lentiviral vector (protein, UniProt Q8ND24 2-703, looked up)
RING finger protein 214: AASEVAGVVANAPSPPESSSLCASKSDEGLPDGLSTKDSAQKQKNSPLLSVSSQTITKENNRNVHLEHSEQNPGSSAGDTSAAHQVVLGENLIATALCLSGSGSQSDLKDVASTAGEEGDTSLRESLHPVTRSLKAGCHTKQLASRNCSEEKSPQTSILKEGNRDTSLDFRPVVSPANGVEGVRVDQDDDQDSSSLKLSQNIAVQTDFKTADSEVNTDQDIEKNLDKMMTERTLLKERYQEVLDKQRQVENQLQVQLKQLQQRREEEMKNHQEILKAIQDVTIKREETKKKIEKEKKEFLQKEQDLKAEIEKLCEKGRREVWEMELDRLKNQDGEINRNIMEETERAWKAEILSLESRKELLVLKLEEAEKEAELHLTYLKSTPPTLETVRSKQEWETRLNGVRIMKKNVRDQFNSHIQLVRNGAKLSSLPQIPTPTLPPPPSETDFMLQVFQPSPSLAPRMPFSIGQVTMPMVMPSADPRSLSFPILNPALSQPSQPSSPLPGSHGRNSPGLGSLVSPHGPHMPPAASIPPPPGLGGVKASAETPRPQPVDKLEKILEKLLTRFPQCNKAQMTNILQQIKTARTTMAGLTMEELIQLVAARLAEHERVAASTQPLGRIRALFPAPLAQISTPMFLPSAQVSYPGRSSHAPATCKLCLMCQKLVQPSELHPMACTHVLHKECIKFWAQTNTNDTCPFCPTLK
For the molecule B3, the “Percent Infected R1” value was 93.9% and the “Z score R1” value is 0.067.

B4: PCGF6: human RING type E3 ligase expressed from lentiviral vector (protein, UniProt Q9BYE7 1-350, looked up)
Polycomb group RING finger …: MEGVAVVTAGSVGAAKTEGAAALPPPPPVSPPALTPAPAAGEEGPAPLSETGAPGCSGSRPPELEPERSLGRFRGRFEDEDEELEEEEELEEEEEEEEEDMSHFSLRLEGGRQDSEDEEERLINLSELTPYILCSICKGYLIDATTITECLHTFCKSCIVRHFYYSNRCPKCNIVVHQTQPLYNIRLDRQLQDIVYKLVINLEEREKKQMHDFYKERGLEVPKPAVPQPVPSSKGRSKKVLESVFRIPPELDMSLLLEFIGANEGTGHFKPLEKKFVRVSGEATIGHVEKFLRRKMGLDPACQVDIICGDHLLEQYQTLREIRRAIGDAAMQDGLLVLHYGLVVSPLKIT
Take B4: the “Percent Infected R1” value turned out to be 94.6% and the “Z score R1” value was determined as 0.08.

B5: TRIM2: human RING type E3 ligase expressed from lentiviral vector (protein, UniProt Q9C040 1-744, looked up)
Tripartite motif-containing …: MASEGTNIPSPVVRQIDKQFLICSICLERYKNPKVLPCLHTFCERCLQNYIPAHSLTLSCPVCRQTSILPEKGVAALQNNFFITNLMDVLQRTPGSNAEESSILETVTAVAAGKPLSCPNHDGNVMEFYCQSCETAMCRECTEGEHAEHPTVPLKDVVEQHKASLQVQLDAVNKRLPEIDSALQFISEIIHQLTNQKASIVDDIHSTFDELQKTLNVRKSVLLMELEVNYGLKHKVLQSQLDTLLQGQESIKSCSNFTAQALNHGTETEVLLVKKQMSEKLNELADQDFPLHPRENDQLDFIVETEGLKKSIHNLGTILTTNAVASETVATGEGLRQTIIGQPMSVTITTKDKDGELCKTGNAYLTAELSTPDGSVADGEILDNKNGTYEFLYTVQKEGDFTLSLRLYDQHIRGSPFKLKVIRSADVSPTTEGVKRRVKSPGSGHVKQKAVKRPASMYSTGKRKENPIEDDLIFRVGTKGRNKGEFTNLQGVAASTNGKILIADSNNQCVQIFSNDGQFKSRFGIRGRSPGQLQRPTGVAVHPSGDIIIADYDNKWVSIFSSDGKFKTKIGSGKLMGPKGVSVDRNGHIIVVDNKACCVFIFQPNGKIVTRFGSRGNGDRQFAGPHFAAVNSNNEIIITDFHNHSVKVFNQEGEFMLKFGSNGEGNGQFNAPTGVAVDSNGNIIVADWGNSRIQVFDGSGSFLSYINTSADPLYGPQGLALTSDGHVVVADSGNHCFKVYRYLQ
B5: the “Percent Infected R1” value worked out at 62.1% and the “Z score R1” value is −0.337.

B6: TRIM1: human RING type E3 ligase expressed from lentiviral vector (protein, UniProt Q9UJV3 1-735, looked up)
Probable E3 ubiquitin-protein …: MGESPASVVLNASGGLFSLKMETLESELTCPICLELFEDPLLLPCAHSLCFSCAHRILVSSCSSGESIEPITAFQCPTCRYVISLNHRGLDGLKRNVTLQNIIDRFQKASVSGPNSPSESRRERTYRPTTAMSSERIACQFCEQDPPRDAVKTCITCEVSYCDRCLRATHPNKKPFTSHRLVEPVPDTHLRGITCLDHENEKVNMYCVSDDQLICALCKLVGRHRDHQVASLNDRFEKLKQTLEMNLTNLVKRNSELENQMAKLIQICQQVEVNTAMHEAKLMEECDELVEIIQQRKQMIAVKIKETKVMKLRKLAQQVANCRQCLERSTVLINQAEHILKENDQARFLQSAKNIAERVAMATASSQVLIPDINFNDAFENFALDFSREKKLLEGLDYLTAPNPPSIREELCTASHDTITVHWISDDEFSISSYELQYTIFTGQANFISKSWCSWGLWPEIRKCKEAVSCSRLAGAPRGLYNSVDSWMIVPNIKQNHYTVHGLQSGTRYIFIVKAINQAGSRNSEPTRLKTNSQPFKLDPKMTHKKLKISNDGLQMEKDESSLKKSHTPERFSGTGCYGAAGNIFIDSGCHYWEVVMGSSTWYAIGIAYKSAPKNEWIGKNASSWVFSRCNSNFVVRHNNKEMLVDVPPHLKRLGVLLDYDNNMLSFYDPANSLHLHTFDVTFILPVCPTFTIWNKSLMILSGLPAPDFIDYPERQECNCRPQESPYVSGMKTCH
B6: the “Percent Infected R1” value was 82.1% and the “Z score R1” value is on record as −0.083.

B7: RNF38: human RING type E3 ligase expressed from lentiviral vector (protein, UniProt Q9H0F5 1-515, looked up)
E3 ubiquitin-protein ligase …: MACKISPGANSASLPGHPNKVICERVRLQSLFPLLPSDQNTTVQEDAHFKAFFQSEDSPSPKRQRLSHSVFDYTSASPAPSPPMRPWEMTSNRQPPSVRPSQHHFSGERCNTPARNRRSPPVRRQRGRRDRLSRHNSISQDENYHHLPYAQQQAIEEPRAFHPPNVSPRLLHPAAHPPQQNAVMVDIHDQLHQGTVPVSYTVTTVAPHGIPLCTGQHIPACSTQQVPGCSVVFSGQHLPVCSVPPPMLQACSVQHLPVPYAAFPPLISSDPFLIHPPHLSPHHPPHLPPPGQFVPFQTQQSRSPLQRIENEVELLGEHLPVGGFTYPPSAHPPTLPPSAPLQFLTHDPLHQEVSFGVPYPPFMPRRLTGRSRYRSQQPIPPPPYHPSLLPYVLSMLPVPPAVGPTFSFELDVEDGEVENYEALLNLAERLGEAKPRGLTKADIEQLPSYRFNPNNHQSEQTLCVVCMCDFESRQLLRVLPCNHEFHAKCVDKWLKANRTCPICRADASEVHRDSE
On to B7, for which the “Percent Infected R1” value came to 88.2% and the “Z score R1” value was −0.01.

B8: RNF113: human RING type E3 ligase expressed from lentiviral vector (protein, UniProt O15541 2-343, looked up)
E3 ubiquitin-protein ligase …: AEQLSPGKAVDQVCTFLFKKPGRKGAAGRRKRPACDPEPGESGSSSDEGCTVVRPEKKRVTHNPMIQKTRDSGKQKAAYGDLSSEEEEENEPESLGVVYKSTRSAKPVGPEDMGATAVYELDTEKERDAQAIFERSQKIQEELRGKEDDKIYRGINNYQKYMKPKDTSMGNASSGMVRKGPIRAPEHLRATVRWDYQPDICKDYKETGFCGFGDSCKFLHDRSDYKHGWQIERELDEGRYGVYEDENYEVGSDDEEIPFKCFICRQSFQNPVVTKCRHYFCESCALQHFRTTPRCYVCDQQTNGVFNPAKELIAKLEKHRATGEGGASDLPEDPDEDAIPIT
For B8, the “Percent Infected R1” value was 92% and the “Z score R1” value is listed as 0.043.

B9: RNF130: human RING type E3 ligase expressed from lentiviral vector (protein, UniProt Q86XS8 28-419, looked up)
E3 ubiquitin-protein ligase …: DNASQEYYTALINVTVQEPGRGAPLTFRIDRGRYGLDSPKAEVRGQVLAPLPLHGVADHLGCDPQTRFFVPPNIKQWIALLQRGNCTFKEKISRAAFHNAVAVVIYNNKSKEEPVTMTHPGTGDIIAVMITELRGKDILSYLEKNISVQMTIAVGTRMPPKNFSRGSLVFVSISFIVLMIISSAWLIFYFIQKIRYTNARDRNQRRLGDAAKKAISKLTTRTVKKGDKETDPDFDHCAVCIESYKQNDVVRILPCKHVFHKSCVDPWLSEHCTCPMCKLNILKALGIVPNLPCTDNVAFDMERLTRTQAVNRRSALGDLAGDNSLGLEPLRTSGISPLPQDGELTPRTGEINIAVTKEWFIIASFGLLSALTLCYMIIRATASLNANEVEWF
B9: the “Percent Infected R1” value turned out to be 91.4% and the “Z score R1” value was 0.04.

(Values after patent US12104181B2, “Compositions and methods for treating viral infections targeting TRIM7” (THE BOARD OF REGENTS OF THE UNIVERSITY OF TEXAS SYSTEM, priority 2021, dated 2024).)
